From patent US20230212293A1 (published 2023) come the findings set out here.

The target of test [1] is T1, PD-1 on PD-1 reporter Jurkat cells (PATHHUNTER Checkpoint Signaling Assay) (UniProt Q15116 25-288). Kind of test: cell-based or functional assay.
Test [2] has as its target T1, PD-1 on PD-1 reporter Jurkat cells …. Description: cell-based or functional assay. The source holds these as a separate data set.
For test [3] the target is unchanged. Kind of test: cell-based or functional assay. This is another data set of the same source.
In test [4] the target is T2, Mouse PD-1 overexpressed on HEK293 cells (mouse, UniProt Q02242 25-288).
T2 construct: whole, on cells
T2 sequence (looked up): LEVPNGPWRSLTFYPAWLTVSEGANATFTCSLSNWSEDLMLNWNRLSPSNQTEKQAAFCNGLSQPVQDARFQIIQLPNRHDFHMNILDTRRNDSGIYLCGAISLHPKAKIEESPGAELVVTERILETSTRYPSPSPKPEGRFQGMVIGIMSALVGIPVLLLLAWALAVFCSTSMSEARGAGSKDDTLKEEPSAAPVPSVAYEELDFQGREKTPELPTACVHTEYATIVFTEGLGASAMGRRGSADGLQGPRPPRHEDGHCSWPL
Kind of test: flow cytometry on HEK293 cells overexpressing mouse PD-1. The protocol:
(§1) HEK293 cells were modified to overexpress human or mouse PD-1. Cells were expanded in puromycin-containing media to maintain selection, and aliquoted to 96 well V-bottom plates for antibody staining and flow cytometric analysis. Anti-PD-1 antibodies were added to cells in BD stain buffer with fetal bovine serum (BD Biosciences, cat. #554656) and incubated on ice for 20 minutes. Cells were then washed, and R-phycoerythrin (PE)-labeled anti-human IgG or anti-human IgM secondary antibodies were then added and incubated for an additional 20 minutes. Data were collected on a Beckman Coulter CYTOFLEX® cytometer and analyzed in FLOWJO™.
(In general: A flow cytometer gives signals particle by particle.)

The target of test [5] is T3, Recombinant mouse PD-1 extracellular domain (with an immunoglobulin Fc region or a His tag) (mouse, UniProt Q02242 25-169).
T3 construct: extracellular domain; Coated on ELISA plates; not shown: either an immunoglobulin Fc region or a His tag
T3 sequence (looked up): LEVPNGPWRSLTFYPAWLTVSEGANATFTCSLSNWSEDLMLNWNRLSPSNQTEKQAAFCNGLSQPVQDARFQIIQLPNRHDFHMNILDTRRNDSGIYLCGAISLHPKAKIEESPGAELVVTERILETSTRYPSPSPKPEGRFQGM
Kind of test: ELISA, plate-coated recombinant PD-1 extracellular domain. The protocol: (§2) An enzyme-linked immunosorbent assay (ELISA) was performed to assess the binding of anti-PD-1 antibodies to human, cynomolgus monkey, or mouse PD-1. Recombinant proteins containing the extracellular domain of PD-1 together with either an immunoglobulin Fc region or a His tag were used to coat wells of standard 96 well ELISA plates by overnight incubation at 4° C. Unbound recombinant protein was removed, Pierce SUPERBLOCK™ T20 was added, and plates were incubated for 10 minutes at room temperature with shaking. Plates were washed with phosphate buffered saline-TWEEN-20 (PBST), and anti-PD-1 antibodies were added in phosphate buffered saline (PBS) with 1% bovine serum albumin (BSA) and incubated for one hour at room temperature with shaking. Plates were then washed in PBST and incubated with horse radish peroxidase (HRP)-conjugated secondary antibodies in F(ab′)2 directed to either human IgG or human IgM. After one hour, plates were washed again with PBST, signal was developed with SUPERSIGNAL™ ELISA Pico substrate, and an ENVISION® luminometer (PerkinElmer) was used to record signal. Data were analyzed with […] PRISM®.
(In an ELISA, binding on a coated surface is turned into a signal by an enzyme label.)

For test [6], the target named is T4, Human PD-1 overexpressed on HEK293 cells (human, UniProt Q15116 25-288).
T4 construct: whole, on cells
T4 sequence (Q15116 25-288): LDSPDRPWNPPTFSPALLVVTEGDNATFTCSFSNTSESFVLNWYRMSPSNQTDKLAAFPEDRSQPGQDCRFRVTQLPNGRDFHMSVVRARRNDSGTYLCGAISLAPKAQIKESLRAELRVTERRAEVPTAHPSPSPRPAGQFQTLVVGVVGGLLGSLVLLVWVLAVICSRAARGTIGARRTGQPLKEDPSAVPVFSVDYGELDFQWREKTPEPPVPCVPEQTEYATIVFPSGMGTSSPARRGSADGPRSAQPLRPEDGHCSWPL
Kind of test: flow cytometry on HEK293 cells overexpressing human PD-1, PE anti-human IgM detection. How it is done:
as §1

The target in test [7] is T5, Recombinant human PD-1 extracellular domain (with an immunoglobulin Fc region or a His tag) (human, UniProt Q15116 25-170).
T5 construct: extracellular domain; Coated on ELISA plates; not shown: either an immunoglobulin Fc region or a His tag
T5 sequence (Q15116 25-170): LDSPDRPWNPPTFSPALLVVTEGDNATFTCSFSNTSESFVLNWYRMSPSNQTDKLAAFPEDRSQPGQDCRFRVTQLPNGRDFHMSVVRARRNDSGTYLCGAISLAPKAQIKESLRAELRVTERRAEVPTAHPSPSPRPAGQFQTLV
Kind of test: ELISA, plate-coated recombinant PD-1 extracellular domain, HRP anti-human IgM detection. How it is done:
as §2

T1 sequence (Q15116 25-288): as the sequence (Q15116 25-288) above

B1: Anti-PD-1 IgM #1 (antibody)
VH: EVQLQESGPGLVKPSQTLSLTCTVTGYSITSDYAWNWIRQPPGKKLEWMGYINYSGSTSYNPSLKSRVTISRDTSKNQFSLKLSSVTAADTAVYYCARWIGSSAWYFDVWGQGTLVTVS
VL: DVLMTQTPLSLSVTPGQPASISCRSGQNIVHSNGNTYLEWYLQKPGQSPKLLIYKVSNRFFGVPDRISGSGSGTDFTLKISRVEAEDVGVYFCFQGSHVPFTFGQGTKLEIK
chain: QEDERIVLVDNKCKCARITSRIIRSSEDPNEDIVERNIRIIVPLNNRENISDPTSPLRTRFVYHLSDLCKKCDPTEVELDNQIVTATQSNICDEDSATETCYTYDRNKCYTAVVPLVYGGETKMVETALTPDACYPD
notes: also called Antibody #1 (IgM format); pentameric IgM #1
For orientation: EC50 means the concentration that produces a half-maximal response. As for B1, the “PD-1 Signaling EC50 (PATHHUNTER Checkpoint Signaling Assay, reporter Jurkat cells), IgM” value in test [1] was 0.014 nM. In test [2], the “PD-1 Signaling EC50 (second incubation at 4 C), IgM” value came to 0.031 nM. The “PD-1 Signaling EC50 (method of Example 8), IgM” value in test [3] amounted to 0.057 nM. The binding result in test [4] and in test [5] was “no binding” each time. The EC50 in test [6] amounted to 0.2 nM; in test [7], 0.087 nM.
